In paper PMC10454455 one finds stoichiometry N data, which are given here for one substance.

Assay [1] deals with CH505 T/F UFO Env trimer (HIV-1 (subject CH505)). As to the kind of experiment: SEC; lectin-purified Env proteins separated on a Superdex 200 Increase 10/300 GL column.
Assay [2] has the same target. As to the kind of experiment: native gel or EMSA; blue native gel (NativePAGE 3-12% Bis-Tris) of the fractions collected from SEC. (A gel shift assay detects complexes by their altered migration in electrophoresis.)

Broadly, the stoichiometry N is a count of units in the complex or per binding partner. On to CH505 T/F UFO Env trimer, for which the stoichiometry N in assay [1] and in assay [2] was 3 in each case.
